# Source: article PMC3954457 (The Journal of biological chemistry, 2006)
# T1: human dihydrolipoamide dehydrogenase (E3) (human, UniProt P09622 36-509)
# T1 sequence: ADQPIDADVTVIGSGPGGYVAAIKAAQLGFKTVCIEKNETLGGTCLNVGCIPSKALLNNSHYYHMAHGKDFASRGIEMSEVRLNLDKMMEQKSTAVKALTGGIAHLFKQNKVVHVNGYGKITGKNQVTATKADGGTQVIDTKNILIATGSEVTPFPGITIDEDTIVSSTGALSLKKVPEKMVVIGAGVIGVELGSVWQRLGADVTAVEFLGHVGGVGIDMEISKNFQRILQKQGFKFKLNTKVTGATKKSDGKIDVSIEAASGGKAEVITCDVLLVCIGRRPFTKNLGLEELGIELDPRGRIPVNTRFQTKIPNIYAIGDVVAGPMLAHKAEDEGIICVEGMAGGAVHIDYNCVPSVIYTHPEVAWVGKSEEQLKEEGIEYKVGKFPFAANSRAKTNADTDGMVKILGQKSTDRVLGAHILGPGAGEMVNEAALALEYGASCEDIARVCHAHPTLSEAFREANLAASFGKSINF
# B1: X subunit binding domain (XSBD) of human E3 binding protein (domain or fragment)
# chain: QISIPVKKEHIPGTLRFRLSPAARNILEKHSLDASQGTATGPRGIFTKEDALKLVQLKQTGKITE
# What was measured:
# [1] = target: X di-domain (XDD) of human E3 binding protein: lipoyl domain and subunit binding domain (human); experiment: ITC
# [2] = target: T1, human dihydrolipoamide dehydrogenase …; experiment: native gel or EMSA
Molecule,dH [1],stoichiometry N [1],stoichiometry N [2]
human dihydrolipoamide dehydrogenase (E3) (from UniProt P09622 36-509) (enzyme),-12.1 kcal/mol,0.5 E3:XDD,
B1,,,2 XSBD:E3
